Measured values published in patent US20230136301A1, “Corticosteriod Reduction in Treatment with Anti-CD38 Antibody” (Janssen Biotech, Inc., priority 2021, published 2023).
“Also recorded” adds a separate entry of the source.

Tests used:
[1] = system: patients with RRMM; assay: PAVO Part 3: immunogenicity (anti-daratumumab and anti-rHuPH20 antibodies); format: in vivo, human
Procedure: For evaluation of immunogenicity, anti-daratumumab antibodies in serum and anti-rHuPH20 antibodies in plasma were assessed pre-dose on Cycle 1 Day 1, Cycle 1 Day 15, Cycle 2 Day 22, Cycle 4 Day 1 and 4- and 8-weeks post-treatment. The presence of anti-daratumumab and/or anti-rHuPH20 antibodies was assessed for classification as neutralizing antibodies.

[2] = system: patients with RRMM; conditions: DARA MD 1,800 mg; PAVO Part 1; median follow-up 8.3 months; cited from earlier work
[3] = system: patients with RRMM; assay: PAVO Part 1: DARA MD safety and efficacy
[4] = system: patients with RRMM; conditions: in vivo
[5] = system: patients with multiple myeloma; conditions: COLUMBA, cited from earlier work

daratumumab: human IgG1/κ anti-CD38 monoclonal antibody; heavy chain SEQ ID NO:12, light chain SEQ ID NO:13
Patients positive for anti-daratumumab antibodies ([1]; daratumumab immunogenicity-evaluable n=41): no patient tested positive; also recorded: no patients evaluable for daratumumab immunogenicity were positive

DARA MD: mix-and-deliver formulation of daratumumab (20 mg/mL) and rHuPH20 given subcutaneously by syringe pump
ORR [2]: 42.2%
Anemia, TEAE of Grade >3 [3]: 15.6%
Serious TEAEs in SOC General disorders and administration site conditions [3]: 6.7%
TEAEs in SOC General disorders and administration site conditions [3]: 71.1%
Serious TEAEs in SOC Infections and infestations [4]: 17.8%
TEAEs in SOC Infections and infestations [4]: 71.1%

DARA IV: daratumumab 16 mg/kg given by intravenous infusion
Median duration of response ([5]; follow-up 7.5 months): not reached
Overall response rate ([5]; median follow-up 7.5 months): 37%

B1: rHuPH20: recombinant hyaluronidase having the amino acid sequence of SEQ ID NO: 22 (protein, listed as Homo sapiens)
chain: LNFRAPPVIPNVPFLWAWNAPSEFCLGKFDEPLDMSLFSFIGSPRINATGQGVTIFYVDRLGYYPYIDSITGVTVNGGIPQKISLQDHLDKAKKDITFYMPVDNLGMAVIDWEEWRPTWARNWKPKDVYKNRSIELVQQQNVQLSLTEATEKAKQEFEKAGKDFLVETIKLGKLLRPNHLWGYYLFPDCYNHHYKKPGYNGSCFNVEIKRNDDLSWLWNESTALYPSIYLNTQQSPVAATLYVRNRVREAIRVSKIPDAKSPLPVFAYTRIVFTDQVLKFLSQDELVYTFGETVALGASGIVIWGTLSIMRSMKSCLLLDNYMETILNPYIINVTLAAKMCSQVLCQEQGVCIRKNWNSSDYLHLNPDNFAIQLEKGGKFTVRGKPTLEDLEQFSEKFYCSCYSTLSCKEKADVKDTDAVDVCIADGVCIDAFLKPPMETEEPQIFY
Patients positive for treatment-emergent anti-rHuPH20 antibodies ([1]; 1-week taper): 1 (9.1%) n (%)
Patients positive for treatment-emergent anti-rHuPH20 antibodies ([1]; 2-week taper): 3 (20.0%) n (%)
Patients positive for treatment-emergent anti-rHuPH20 antibodies ([1]; 3-week taper): 6 (40.0%) n (%)
Neutralizing anti-rHuPH20 antibodies ([1]; all cohorts): None of the anti-rHuPH20 antibodies were neutralizing antibodies
